# Laboratory results reported in patent publication US20240271119A1 (BROAD INSTITUTE, published 2024).
# Residue numbers refer to the chain shown, from its start. Numbers in names are those of the source.
# B1: YibK(V139R R146C)-SH2 (periplasmic, pMM103g) (other)
# chain: MLDIVLYEPEIPQNTGNIIRLCANTGFRLHLIEPLGFTWDDKRLRRSGLDYHEFAEIKRHKTFEAFLESEKPKRLFALTTKGCPAHSQVKFKLGDYLMFGPETRGIPMSILNEMPMEQKIRIPMTANSRSMNLSNSVARTVYEAWCQLGYKGAVNLPEVKGGSGGSGGSGGSGGSSLEKHSWYHGPVSRNAAEYLLSSGINGSFLVRESESSPGQRSISLRYEGRVYHYRINTASDGKLYVSSESRFNTLAELVHHHSTVADGLITTLHYPAPKR
# B2: Ω-graft scFv variant 37o5c2.1 (R1C F232A) (scFv)
# scFv: CDIVMTQSPSSLSASVGDRVTITCRSSTGAVTTSNYASWVQEKPGKLFKGLIGGTNNRAPGVPSRFSGSLIGDKATLTISSLQPEDFATYFCALWYSNHWVFGQGTKVELKRGGGGSGGGGSGGGGSSGGGSEVKLLESGGGLVQPGGSLKLSCAVSGFSLTDYGVNWVRQAPGRGLEWIGVIWGDGITDYNSALKDRFIISKDDCENTVYLQMSKVRSDDTALYYCVTGLADYWGQGTLVTVSS
# B3: Ω-graft-SH2 (periplasmic, from SS-Ω-graft-SH2) (scFv)
# scFv: RDIVMTQSPSSLSASVGDRVTITCRSSTGAVTTSNYASWVQEKPGKLFKGLIGGTNNRAPGVPSRFSGSLIGDKATLTISSLQPEDFATYFCALWYSNHWVFGQGTKVELKRGGGGSGGGGSGGGGSSGGGSEVKLLESGGGLVQPGGSLKLSCAVSGFSLTDYGVNWVRQAPGRGLEWIGVIWGDGITDYNSALKDRFIISKDDCENTVYLQMSKVRSDDTALYYCVTGLFDYWGQGTLVTVSSGGSGGSGGSGGSGGSSLEKHSWYHGPVSRNAAEYLLSSGINGSFLVRESESSPGQRSISLRYEGRVYHYRINTASDGKLYVSSESRFNTLAELVHHHSTVADGLITTLHYPAPKR
# B4: Ω-graft(L231F F232A)-SH2 (periplasmic, from SS-Ω-graft(L231F F232A)-SH2) (scFv)
# scFv: B3 scFv with L231F, F232A
# What was measured:
# [1] = molecular target: YibK(V139R)-SH2 (periplasmic, from SS-YibK(V139R)-SH2); assay: cell-based or functional assay
# [2] = molecular target: YibK-SH2 (periplasmic, from SS-YibK-SH2); assay: cell-based or functional assay
# [3] = molecular target: the molecule itself; assay: Western blot of whole-cell lysate with and without DTT
# [4] = molecular target: CadC1-155-Leu(16)TM-GCN4(7P14P) (pMM114a) (E. coli; yeast); assay: cell-based or functional assay
# [5] = molecular target: GCN4(7P14P)-SH2 (periplasmic, from SSPelB-GCN4(7P14P)-SH2, pMM95a) (yeast); assay: cell-based or functional assay
molecule,measurement,setting,value
"YibK(V139R)-SH2 (periplasmic, from SS-YibK(V139R)-SH2)",PcadBA-directed LuxAB expression,[1],> 8 fold loss
"YibK-SH2 (periplasmic, from SS-YibK-SH2)",PcadBA transcriptional activation (LuxAB luminescence),[2],66 fold
same,overnight phage propagation,[2],> 1000 fold
B1,binding result,[3],binds
B2,overnight phage enrichment,[4],1000 fold
B3,PcadBA-driven LuxAB expression,[5],30 fold
same,phage enrichment in mock selection (PACE 12 hours or two PANCE passages),[5],> 1000 fold
B4,PcadBA transcriptional activation (LuxAB) (fold decrease),[5],55
